What was measured:
DA transporter (DAT) = DA transporter (DAT) (Rattus norvegicus, UniProt P23977); test: [3H]DA uptake into rat striatal synaptosomes; type: biochemical
human DAT = human DAT (Homo sapiens, UniProt Q01959); test: Dissociation of [3H]WIN 35,428 binding from HEK/hDAT cells; conditions: for Dissociation rate K−1 of [3H]WIN 35,428 binding (single component model): experiment B
Chain of human DAT (Q01959 whole entry): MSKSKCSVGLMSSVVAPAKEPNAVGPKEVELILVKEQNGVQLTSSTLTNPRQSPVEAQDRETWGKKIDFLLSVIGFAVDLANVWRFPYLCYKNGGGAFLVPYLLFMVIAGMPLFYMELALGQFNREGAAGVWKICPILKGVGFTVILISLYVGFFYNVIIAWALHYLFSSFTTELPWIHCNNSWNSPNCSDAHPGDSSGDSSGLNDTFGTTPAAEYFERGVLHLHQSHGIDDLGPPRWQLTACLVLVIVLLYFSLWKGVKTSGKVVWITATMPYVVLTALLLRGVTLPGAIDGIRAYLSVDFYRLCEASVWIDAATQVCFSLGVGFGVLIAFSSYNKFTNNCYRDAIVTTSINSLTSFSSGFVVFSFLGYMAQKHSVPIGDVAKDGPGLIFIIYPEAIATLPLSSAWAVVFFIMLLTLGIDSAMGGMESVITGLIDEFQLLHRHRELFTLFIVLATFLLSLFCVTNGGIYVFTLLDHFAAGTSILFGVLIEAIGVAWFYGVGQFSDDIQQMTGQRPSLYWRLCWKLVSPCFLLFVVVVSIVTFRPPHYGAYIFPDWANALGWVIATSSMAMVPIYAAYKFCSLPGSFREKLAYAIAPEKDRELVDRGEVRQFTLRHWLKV

Chain of DA transporter (DAT) (P23977 whole entry): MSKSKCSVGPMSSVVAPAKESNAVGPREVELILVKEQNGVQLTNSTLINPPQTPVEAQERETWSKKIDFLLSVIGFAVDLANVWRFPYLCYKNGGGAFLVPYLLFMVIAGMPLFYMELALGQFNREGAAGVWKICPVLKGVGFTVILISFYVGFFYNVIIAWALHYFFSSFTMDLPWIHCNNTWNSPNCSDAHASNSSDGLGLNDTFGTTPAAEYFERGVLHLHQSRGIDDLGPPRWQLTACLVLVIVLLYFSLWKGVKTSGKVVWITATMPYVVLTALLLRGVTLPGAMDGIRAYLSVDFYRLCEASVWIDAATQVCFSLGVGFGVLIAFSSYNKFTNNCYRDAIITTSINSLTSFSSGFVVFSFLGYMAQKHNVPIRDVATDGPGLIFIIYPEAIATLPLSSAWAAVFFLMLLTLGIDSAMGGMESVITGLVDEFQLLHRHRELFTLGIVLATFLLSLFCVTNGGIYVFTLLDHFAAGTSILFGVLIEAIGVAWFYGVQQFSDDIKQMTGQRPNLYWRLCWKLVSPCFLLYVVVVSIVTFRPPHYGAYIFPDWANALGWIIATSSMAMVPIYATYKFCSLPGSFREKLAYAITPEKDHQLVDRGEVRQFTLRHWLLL

COC(=O)[C@H]1[C@@H](OC(=O)c2ccccc2)C[C@@H]2CC[C@H]1N2C [Cocaine]
Specific Uptake (percentage of control) (DA transporter (DAT); control (cocaine alone)): 100%

CN[C@@H]1C[C@@H](c2ccc(Cl)c(Cl)c2)c2ccccc21.Cl [Indatraline, indatraline hydrochloride]
Specific Uptake (percentage of control) (DA transporter (DAT); indatraline 10 nM, control = cocaine alone): 33%

B1: Tat: Recombinant HIV-1 Tat1-86 protein, LA1/Bru strain of HIV-1 clade B, Genbank accession no. K02013 (protein)
chain: MEPVDPRLEPWKHPGSQPKTACTTCYCKKCCFHCQVCFTTKALGISYGRKKRRQRRRPPQGSQTHQVSLSKQPTSQPRGDPTGPKE
Dissociation rate of [3H]WIN 35,428 relative to that observed with cocaine alone (human DAT; Tat added after cocaine): 25% | Dissociation rate K−1 of [3H]WIN 35,428 binding (single component model) (human DAT; condition-2: cocaine 10 μM at time 0, Tat 5 μM added 5 min later): 0.08 ± 0.005 min⁻¹ | Dissociation rate K−1 of [3H]WIN 35,428 binding (single component model) (human DAT; condition-3: Tat 5 μM alone): 0.03 ± 0.009 min⁻¹ | Specific Uptake (percentage of control) (DA transporter (DAT); Tat 5 μM, control = cocaine alone): 45%

Reference: PMC3676522 (Synapse (New York, N.Y.), 2011)
